Measured values: PMC3901395, “Multivalent interactions of the SUMO-interaction motifs in RING finger protein 4 determine the specificity for chains of the SUMO” (Biochemical Journal, 2013)

Legend:
2xSUMO1ΔN15 (di-SUMO1) = test: ITC binding to linear di-SUMO1 (2xSUMO1ΔN15); details: 50 mM Tris/HCl pH 7.5, 150 mM NaCl, 2 mM DTT, 5% glycerol, 25°C, averaged from two to six titrations, read-out: Dissociation constant (KD), 2xSUMO1ΔN15 (linear di-SUMO1)
Source text: (§1) For expression in Escherichia coli, linear poly-SUMO chains were generated as described previously with slight modifications. After the combined PCR/ligation reaction, the 4×SUMO2-ΔN11 or 4×SUMO1-ΔN15 DNA polymers were separated from smaller polymers by agarose gel electrophoresis and individually extracted (Macherey–Nagel). These were then subjected to a second PCR with primers to create BamHI and XhoI restriction sites, a C-terminal GG motif and a stop codon. The resulting fragments coding for di-, tri- and tetra-SUMO2-ΔN11 or SUMO1-ΔN15 chains were amplified and cloned into pGEX-4T2. […] Each monomer in these chains is separated by RS replacing the natural GG motif. A similar strategy was used to design C-terminally GFP–HA2-tagged linear poly-SUMOs in the copper-inducible Ycplac22 vector for expression in S. cerevisiae. […]
(§2) The mono-SUMOs and linear poly-SUMO1 and poly-SUMO2 proteins as well as all RNF4 constructs were expressed as GST-fusion proteins from E. coli Rosetta™ 2(DE3)pLysS cells (Novagen) cultivated in LB medium with 100 μg/ml ampicillin and 30 μg/ml chloramphenicol after induction with 0.1 mM IPTG at 20°C for 12 h. […]
(§3) Binding of peptides and proteins to SUMOs was investigated by ITC using either a VP-ITC or an ITC200 (GE Healthcare). […] Protein concentrations were determined by measuring the absorption at 280 nm. […]

[1] = target: 4xSUMO1ΔN15 (tetra-SUMO1); test: ITC binding to linear tetra-SUMO1 (4xSUMO1ΔN15); details: 50 mM Tris/HCl pH 7.5, 150 mM NaCl, 2 mM DTT, 5% glycerol, 25°C, averaged from two to six titrations, read-out: Dissociation constant (KD), 4xSUMO1ΔN15 (tetra-SUMO1)
Source text: as §1, §2, §3

3xSUMO2ΔN11 (tri-SUMO2) = test: ITC binding to linear tri-SUMO2 (3xSUMO2ΔN11)
Source text: as §1, §2, §3

2xSUMO2ΔN11 (di-SUMO2) = target: T1, 2xSUMO2ΔN11 (di-SUMO2) (Homo sapiens, UniProt P61956); test: ITC binding to linear di-SUMO2 (2xSUMO2ΔN11); details: 50 mM Tris/HCl pH 7.5, 150 mM NaCl, 2 mM DTT, 5% glycerol, 25°C, averaged from two to six titrations, read-out: Dissociation constant (KD), 2xSUMO2ΔN11 (linear di-SUMO2)
T1 construct: Each monomer in these chains is separated by RS replacing the natural GG motif; a C-terminal GG motif and a stop codon; GST (N, cleaved yes); made in house; host or cells: E. coli Rosetta 2(DE3)pLysS
Source text: as §1, §2, §3

[2] = target: 4xSUMO2ΔN11 (tetra-SUMO2); test: ITC binding to linear tetra-SUMO2 (4xSUMO2ΔN11); details: 50 mM Tris/HCl pH 7.5, 150 mM NaCl, 2 mM DTT, 5% glycerol, 25°C, averaged from two to six titrations, read-out: Dissociation constant (KD), 4xSUMO2ΔN11 (tetra-SUMO2)
Source text: as §1, §2, §3

[3] = target: native 2xSUMO2 ('native' Lys^11-linked di-SUMO2 chains); test: ITC binding to native Lys^11-linked di-SUMO2; details: 50 mM Tris/HCl pH 7.5, 150 mM NaCl, 2 mM DTT, 5% glycerol, 25°C, averaged from two to six titrations, chains produced by in vitro SUMOylation, read-out: Dissociation constant (KD), native Lys^11-linked di-SUMO2
Procedure: The mono-SUMOs and linear poly-SUMO1 and poly-SUMO2 proteins as well as all RNF4 constructs were expressed as GST-fusion proteins from E. coli Rosetta™ 2(DE3)pLysS cells (Novagen) cultivated in LB medium with 100 μg/ml ampicillin and 30 μg/ml chloramphenicol after induction with 0.1 mM IPTG at 20°C for 12 h. Cells were lysed by sonication in GST-buffer I (50 mM Tris/HCl, pH 7.5, 150 mM NaCl and 2 mM DTT) in the presence of protease inhibitors (1 μg/ml aprotinin, 1 μg/ml leupeptin, 1 μg/ml pepstatin, 200 μM pefabloc and 100 μM PMSF). For tetra-SUMOs and RNF4 variants, 1.5% sarkosyl, 0.1% Triton X-100 and 5% glycerol were added. The proteins were affinity purified using glutathione beads (Protino® Glutathione Agarose 4B, Macherey–Nagel) and eluted by thrombin cleavage. The supernatant was subjected to anion exchange chromatography and further purified by SEC (size-exclusion chromatography) into ITC buffer (50 mM Tris/HCl, pH 7.5, 150 mM NaCl, 2 mM DTT and 5% glycerol) or in crystallization buffer (20 mM Tris/HCl, pH 7.5, and 100 mM NaCl). Native SUMO2 chains were produced by in vitro SUMOylation as described recently and subsequently purified by affinity chromatography and SEC.
as §3

[4] = tested on: mono-SUMOs and SUMO chains; test: ITC binding to mono-SUMOs and SUMO chains (general statements); details: mono-SUMO1 and mono-SUMO2
Source text: as §1, §2, §3

T1 sequence (P61956 with tags, fused parts or gaps): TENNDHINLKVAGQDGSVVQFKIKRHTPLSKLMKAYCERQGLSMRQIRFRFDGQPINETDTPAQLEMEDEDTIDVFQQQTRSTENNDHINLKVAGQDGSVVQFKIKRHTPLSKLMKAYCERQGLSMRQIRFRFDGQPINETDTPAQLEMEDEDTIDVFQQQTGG

B1: SIM domain: construct comprising the entire N-terminal part of RNF4 upstream of the RING domain (N-terminal 1–125 amino acids) (protein)
chain: MSTRKRRGGAINSRQAQKRTREATSTPEISLEAEPIELVETAGDEIVDLTCESLEPVVVDLTHNDSVVIVDERRRPRRNARRLPQDHADSCVVSSDDEELSRDRDVYVTTHTPRNARDEGATGLR
modifications: left off: GST, end not stated, cleaved
2xSUMO1ΔN15 (di-SUMO1)
  Kd: 17 µM
[1]
  Kd: 4.3 µM
3xSUMO2ΔN11 (tri-SUMO2); 50 mM Tris/HCl pH 7.5, 150 mM NaCl, 2 mM DTT, 5% glycerol, 25°C, averaged from two to six titrations, read-out: Dissociation constant (KD), 3xSUMO2ΔN11 (tri-SUMO2)
  Kd: 19 µM
3xSUMO2ΔN11 (tri-SUMO2); tri-SUMO2
  affinity for tri-SUMO compared with di-SUMO: did not result in an increase in affinity
2xSUMO2ΔN11 (di-SUMO2)
  Kd: 14 µM
[2]
  Kd: 1.6 µM
[3]
  Kd: 11 µM
[4]
  affinity for mono-SUMOs: very weak
